From US20070111265A1, “Ligands for mineralocorticoid receptor (MR) and methods for screening for or designing MR ligands” (Van Andel Research Institute, priority 2005, published 2007)
Entries after “also recorded” stand apart in the source; their conditions may differ. No end group written: not given here.

Legend:
[1] = system: MR S810 mutated to leucine or methionine; conditions: Geller et al., 2000; cited from earlier work
[2] = biological target: T1, purified MR LBD/corticosterone complex (Homo sapiens, UniProt P08235, C808S); experiment: AlphaScreen binding of biotinylated coactivator/corepressor peptides (FIG. 1B); conditions: corticosterone-bound MR LBD
T1 construct: made in house; host or cells: E. coli BL21DE3 (pET24a)
T1 sequence (P08235 727-984 C808S): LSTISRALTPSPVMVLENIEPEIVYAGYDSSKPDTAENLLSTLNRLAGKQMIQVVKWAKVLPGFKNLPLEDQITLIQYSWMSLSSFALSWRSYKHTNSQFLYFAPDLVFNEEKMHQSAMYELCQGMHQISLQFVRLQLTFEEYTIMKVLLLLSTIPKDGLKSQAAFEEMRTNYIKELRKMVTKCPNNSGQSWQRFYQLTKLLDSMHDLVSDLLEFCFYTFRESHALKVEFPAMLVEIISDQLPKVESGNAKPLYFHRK
Description: (B) Binding of various peptides containing coactivator or corepressor motifs to the purified MR LBD/corticosterone complex as measured by AlphaScreen assays. The background reading with the MR LBD alone is less than 200.
(§1) The binding of various peptide motifs to MR was determined by AlphaScreen assays using a hexahistidine detection kit from Perkin-Elmer. MR proteins were prepared as 6×His-GST fusion proteins for the assays.
The biotinylated peptides that were used in FIG. 1B are listed below in Table 1: […]

MR = biological target: T2, MR (Homo sapiens, UniProt P08235); experiment: IC50 (µM)
T2 construct: receptor expression vector (pRS vector) encoding full-length GR and MR respectively (ATCC); host or cells: Cos-7
T2 sequence (P08235 whole entry, looked up): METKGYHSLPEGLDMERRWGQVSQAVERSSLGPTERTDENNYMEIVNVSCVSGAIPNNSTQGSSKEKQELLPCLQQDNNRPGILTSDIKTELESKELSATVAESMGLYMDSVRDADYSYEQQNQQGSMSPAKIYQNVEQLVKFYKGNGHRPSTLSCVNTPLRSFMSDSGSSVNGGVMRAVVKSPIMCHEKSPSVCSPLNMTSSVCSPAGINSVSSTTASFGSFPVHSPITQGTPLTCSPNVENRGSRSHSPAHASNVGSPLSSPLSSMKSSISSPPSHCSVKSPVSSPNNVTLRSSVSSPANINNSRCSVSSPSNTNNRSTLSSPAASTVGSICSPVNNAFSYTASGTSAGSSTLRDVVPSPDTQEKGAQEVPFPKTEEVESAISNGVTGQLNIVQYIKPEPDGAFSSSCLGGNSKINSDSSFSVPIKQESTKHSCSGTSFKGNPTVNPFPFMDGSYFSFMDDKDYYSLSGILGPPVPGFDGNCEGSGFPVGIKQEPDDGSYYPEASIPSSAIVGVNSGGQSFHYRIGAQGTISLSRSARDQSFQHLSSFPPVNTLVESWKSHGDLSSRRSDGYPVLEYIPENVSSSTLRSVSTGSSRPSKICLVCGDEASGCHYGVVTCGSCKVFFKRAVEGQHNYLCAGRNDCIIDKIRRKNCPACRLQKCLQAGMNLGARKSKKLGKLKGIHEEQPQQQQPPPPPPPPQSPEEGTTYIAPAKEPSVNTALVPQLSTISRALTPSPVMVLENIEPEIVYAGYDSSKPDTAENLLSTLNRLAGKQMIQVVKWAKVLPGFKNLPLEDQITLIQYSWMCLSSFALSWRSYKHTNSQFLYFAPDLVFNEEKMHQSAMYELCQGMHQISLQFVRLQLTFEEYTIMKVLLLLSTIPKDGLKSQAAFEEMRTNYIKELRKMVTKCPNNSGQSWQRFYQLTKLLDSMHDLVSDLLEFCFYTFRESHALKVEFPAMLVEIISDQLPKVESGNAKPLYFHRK
Excerpt: Table printed on a drawing sheet, FIG. 3D
Head of the field: IC50 (µM)
The patent's description of the figure: FIG. 3.
First copying reader's note: The head of the sequence column numbers the residue positions relative to the first leucine of the LXXLL motif; the last two rows are protein fragments given as residue ranges.

MR LBD = biological target: T3, MR LBD (Homo sapiens, UniProt P08235, C808S); experiment: Peptide profiling: unlabeled peptides compete off SRC2-3 binding to MR (FIG. 1C); conditions: unlabeled peptide 500 nM; 20 nM corticosterone or aldosterone
T3 construct: made in house; host or cells: E. coli BL21DE3 (pET24a)
T3 sequence (P08235 727-984 C808S): T1 sequence (P08235 727-984 C808S)
Description: The cofactors that contain a pair of LXXLL motifs with strong binding affinity to MR are boxed. All peptides have identical length of 15 residues except for SRC1-4 motif, which terminates at position +7 relative to the first leucines (L+1) in the LXXLL motif, and for the AR peptides and the corepressor motifs, which are longer than the coactivator motifs. Sequences of peptides are listed in experimental procedures.
as §1
The unlabeled peptides that were used in FIG. 1C are listed below in Table 2:
MR is the least studied member among the classical steroid hormone receptors and its physiological coactivators have not been clearly documented. To gain insights into which coactivator is physiologically relevant to MR, the inventors performed peptide profiling experiments using a panel of 38 unlabeled peptides to compete off the binding of the third LXXLL motif of SRC2 (also known as TIF2/GRIP1) to MR. […] The strong binding of the SRC1-4 motif and the PGC1 motifs is consistent with previous studies of the binding of LXXLL motifs to oxosteroid receptors (Hultman et al., 2005; Wu et al., 2004).

C[C@]12CCC(=O)C=C1CC[C@@H]1[C@@H]2C(=O)C[C@@]2(C)[C@H]1CC[C@]2(O)C(=O)CO [cortisone]
activation of S810-mutated MR [1]: activated efficiently

CC(=O)[C@H]1CC[C@H]2[C@@H]3CCC4=CC(=O)CC[C@]4(C)[C@H]3CC[C@]12C [progesterone]
activation of S810-mutated MR [1]: activated efficiently; also recorded: allows the receptor to respond

AEEPSLLKKLLLAPA [PGC1]
interaction with purified MR LBD [2]: strongly

GHGEDFSKVSQNPILTSLLQITGN (listed as Homo sapiens) [TRAP220]
interaction with purified MR LBD [2]: weakly

GHSFADPASNLGLEDIIRKALMGSF [NCOR-2]
interaction with purified MR LBD [2]: failed to interact

KENNALLRYLLDRDD [SRC3-3]
IC50 (MR): 1400 nM

PRQGSILYSLLTSSK (listed as Homo sapiens) [DAX1-3, 18]
inhibition of SRC2-3 binding to MR (MR LBD): most potent competitors

QEKHRILHKLLQNGN [SRC3-2]
IC50 (MR): 4600 nM

SGNLVPDAASKHKQLSELLRGGSG (listed as Homo sapiens) [CBP]
interaction with purified MR LBD [2]: weakly

WAEFSILRELLAQDV (listed as Homo sapiens) [PGC1β-2, 35]
inhibition of SRC2-3 binding to MR (MR LBD): most potent competitors
